The record followed here is US5910570.

The target of assay [1] is T1, synthetic acceptor peptide Arg-Ser-Pro-Pro-Pro (RSPPP).
T1 sequence (peptide): RSPPP

The target of assay [2] is synthetic acceptor peptide Pro-Pro-Ala-D-Ser-Thr-D-Ser-Ala-Pro-Gly (PPAdSTdSAPG).
Assay [3] deals with T2, subtilisin, reduced and carboxymethylated (Bacillus amyloliquefaciens (Bacillus velezensis)) (UniProt P00782).
T2 sequence (chain, reduced and carboxymethylated): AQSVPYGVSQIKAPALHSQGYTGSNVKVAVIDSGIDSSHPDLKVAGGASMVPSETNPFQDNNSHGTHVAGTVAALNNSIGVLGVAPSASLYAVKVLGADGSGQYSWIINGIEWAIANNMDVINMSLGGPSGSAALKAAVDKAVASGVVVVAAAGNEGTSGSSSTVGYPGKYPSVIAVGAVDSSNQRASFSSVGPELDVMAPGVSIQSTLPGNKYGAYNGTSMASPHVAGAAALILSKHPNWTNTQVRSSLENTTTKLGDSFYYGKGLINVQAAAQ

Assay [4] has as its target T3, subtilisin, native (Bacillus amyloliquefaciens (Bacillus velezensis)) (UniProt P00782).
T3 sequence: T2 sequence (chain, reduced and carboxymethylated)

Assay [5] has as its target bovine cytochrome C, reduced and carboxymethylated (bovine) (UniProt P62894).
Assay [6] concerns the target T4, bovine rhodanese, reduced and carboxymethylated (bovine) (UniProt P00586).
T4 sequence (chain, reduced and carboxymethylated): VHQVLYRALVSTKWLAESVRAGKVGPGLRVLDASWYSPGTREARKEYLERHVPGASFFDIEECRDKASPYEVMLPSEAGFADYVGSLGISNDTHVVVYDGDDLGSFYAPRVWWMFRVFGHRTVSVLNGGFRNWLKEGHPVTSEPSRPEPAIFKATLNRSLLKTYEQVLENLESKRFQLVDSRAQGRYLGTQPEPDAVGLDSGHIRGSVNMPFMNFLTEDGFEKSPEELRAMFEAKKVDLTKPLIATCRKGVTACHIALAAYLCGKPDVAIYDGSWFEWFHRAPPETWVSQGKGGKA

Assay [7] deals with bovine cytochrome C, native (bovine) (UniProt P62894).
Assay [8] addresses T5, bovine rhodanese, native (bovine) (UniProt P00586).
T5 sequence: T4 sequence (chain, reduced and carboxymethylated)

The target in assay [9] is T1, synthetic acceptor peptide Arg-Ser-Pro-Pro-Pro (RSPPP). The source holds these as a separate data set.
Assay [10] addresses synthetic acceptor peptide Pro-Pro-Ala-D-Ser-Thr-D-Ser-Ala-Pro-Gly (PPAdSTdSAPG). The source holds these as a separate data set.
For assay [11], the target named is T6, synthetic acceptor peptide Arg-Thr-Pro-Pro-Pro (RTPPP).
T6 sequence (peptide): RTPPP

Sequence of myelin basic protein (P02687 whole entry): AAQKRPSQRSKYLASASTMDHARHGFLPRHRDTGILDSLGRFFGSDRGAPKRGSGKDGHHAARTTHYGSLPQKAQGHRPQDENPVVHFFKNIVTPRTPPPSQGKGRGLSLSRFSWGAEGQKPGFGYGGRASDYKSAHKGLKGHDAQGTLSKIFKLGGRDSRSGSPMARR

B1: UDP-GalNAc:polypeptide N-acetylgalactosaminyltransferase purified from bovine colostrum (enzyme)
chain: GLPAGDVLEPVQKPHEGPGEMGKPVVIPKEDQEKMKEMFKINQFNLMASEMIALNRSLPDVRLEGCKTKVYPDNLPTTSVVIVFHNEAWSTLLRTVHSVINRSPRHMLEEIVLVDDASERDFLKRPLESYVKKLKVPVHVIRMEQRSGLIRARLKGAAVSKGQVITFLDAHCECTVGWLEPLLARIKHDRKTVVCPIIDVISDDTFEYMAGSDMTYGGFNWKLNFRWYPVPQREMDRRKGDRTLPVRTPTMAGGLFSIDRDYFQEIGTYDAGMDIWGGENLEISFRIWQCGGTLEIVTCSHVGHVFRKATPYTFPGGTGQIINKNNRRLAEVWMDEFKNFFYIISPGVTKVDYGDISSRLGLRHKLQCRPFSWYLENIYPDSQIPRHYFSLGEIRNVETNQCLDNMARKENEKVGIFNCHGMGGNQVFSYTANKEIRTDDLCLDVSKLNGPVTMLKCHHLKGNQLWEYDPVKLTLQHVNSNQCLDKATDEDSQVPSIRDCSGSRSQQWLLRNVTLPEIF
modifications: native glycoprotein (peptide N-glycosidase F shifts it by approximately 6 kDa)
For the molecule B1, the Product formed was 0.67 nmol/min/mg in [1]; 2 nmol/min/mg in assay [2]; 22.2 nmol/min/mg with myelin basic protein; 0.6 nmol/min/mg in [3]; less than 0.1 nmol/min/mg in assay [4]; less than 0.1 nmol/min/mg in assay [5]. Moreover, the Product formed was 3.3 nmol/min/mg in assay [6], less than 0.1 nmol/min/mg in [7] and less than 0.1 nmol/min/mg in [8]. In addition, the Vmax/Km in assay [9] is 0.4 M⁻¹ s⁻¹; in [10] it was 1.2 M⁻¹ s⁻¹; in assay [11], 183 M⁻¹ s⁻¹. Moreover, the Km in [11] worked out at 3.3 mM.

Broadly, the Km is the substrate concentration at which the rate is half of its maximum.
